Results from patent US20260201069A1, “ANTIBODIES THAT SPECIFICALLY BIND MODIFIED OLIGONUCLEOTIDES” (Hoffmann-La Roche Inc., priority 2024, published 2026).
Numbering of substitutions follows the chain as printed.

B1: clone 1.9.21: anti-LNA monoclonal hybridoma antibody, VH SEQ ID NO: 48, VL SEQ ID NO: 57 (antibody, listed as Mus musculus, V domains shown)
VH: QVQLQQSGAELVRPGTSVKVSCKASGYAFTNYLIEWIKQRPGQGLEWIGVINPGSGGTNYNEKFRVKATLTADKSSSTAYMQLSSLTSDDSAVYFCARGGGYYWGQGTLVTVSA
VL: DIVMTQAAPSVPVTPGESVSISCRSSKSLLHSNGNTYLFWFLQRPGQSPQVLIYRMSNLASGVPDRFSGSGSGTAFTLRISRVEAEDVGVYYCMQHLEYPYTFGSGTRLEIK
B2: clone 1.5.13: anti-LNA monoclonal hybridoma antibody, VH SEQ ID NO: 81, VL SEQ ID NO: 89 (antibody, listed as Mus musculus, V domains shown)
VH: QVQLKESGPGLVAPSQSLSITCTISGFSLTTYGVHWVRQPPGMGLEWLVVIWGDGSTTYNSALRSRLSISKDNSRSQVFLKMNSLQTDDTAMYYCARHGGRYALDYWGQGTSVTVSS
VL: DIVMTQSPATLSVTPGDRVSLSCRASQSIGGYLHWYQQKSHESPRLLIKYASQSMSGIPPRFSGSGSGSDFTLSINSVAPEDVGVYYCQAGHTFPLTFGAGTKL
B3: clone 1.2.8: anti-LNA monoclonal hybridoma antibody, VH SEQ ID NO: 30, VL SEQ ID NO: 39 (antibody, listed as Mus musculus, V domains shown)
VH: QIQLRESGPGLVAPSQSLSITCTVSGFSLTNYGVHWVRQPPGKGLEWLGVIWAGGSTIYNSALMSRLSISRDNSKSQVFLEMNSLQTYDTAMYYCARDRPFDGFFFSYWGQGTALTVSS
VL: DVLMTQTPLSLPVSLGDQASISCRSSQAIVHRSGNTFLEWYLQKPGQSPKLLIYKVSNRFSGVPDRFSGSGSGTDFTLKINRVEAEDLGVYYCFQGSHVPYTFGSGTKLEIK
B4: clone 1.4.10: anti-LNA monoclonal hybridoma antibody, VH SEQ ID NO: 65, VL SEQ ID NO: 73 (antibody, listed as Mus musculus, V domains shown)
VH: B3 VH with T30V, V34I, S76N
VL: B3 VL
B5: clone 1.7.15: anti-LNA monoclonal hybridoma antibody, VH SEQ ID NO: 12, VL SEQ ID NO: 21 (antibody, listed as Mus musculus, V domains shown)
VH: QVQLKQSGPSFVQPSQSLSITCTVSGFSLTTYGVHWVRQSPGKGLEWLGVIWRSGGTDYNAAFMSRLSITKDNSKSQVFFKMNSLQTDDTAIYYCTNLYYWGQGTTLTVSS
VL: DIVMTQATFSNPVTLGTSVSISCRSSKSLLRSNGITYLYWYLQKPGQSPQLLIYQMSNLASGVPDRFSSSGSGTDFTLRISRVEAEDVGVYYCGQNLELPYTFGSGTKVEIK

Tested on: GalNAc-C6-modification
Experiment: Epitope mapping solid phase immunoassay (ELISA)
Assay type: binding
Conditions: signal-to-noise (S/N) class
From the text: (§1) The epitope was mapped using immunoassays with capture molecules containing the following binding epitopes as well as combinations thereof: • LNA (2′-0,4-C-methylene), • phosphorothioate in the NA backbone, • nucleotides/sequence of bases, • DNA, • GalNAc-C6-modification.
(§2) The results of the epitope characterization of the antibodies according to the current invention by solid phase immunoassay (ELISA) using different biotinylated LNA, PS-backbone or DNA-containing NA-oligonucleotides as outlined above are shown in FIGS. 1 to 5.
(§3) The selected monoclonal LNA-specific Abs were further characterized for binding characteristics and epitope mapped by immunoassay using capture molecules containing the following binding epitopes and combinations thereof • LNA (2′-O.4-C-methylene) • phosphorothioate in the NA backbone • nucleotides/sequence of bases • DNA • GalNAc-C6-modification
(§4) The results of the antibody characterization by solid phase immunoassay (ELISA) using different biotinylated LNA, PS-backbone or DNA-containing NA-oligonucleotides are shown in FIGS. 1 to 5.

| Molecule | Reactivity to GalNAc-C6-modification |
| --- | --- |
| B1 | − (−: S/N <2) |
| B2 | − (−: S/N <2) |
| B3 | − (−: S/N <2) |
| B4 | − (−: S/N <2) |
| B5 | − (−: S/N <2) |

Tested on: Phosphorothioate Backbone
Experiment: Epitope mapping solid phase immunoassay (ELISA)
Assay type: binding
Conditions: signal-to-noise (S/N) class
From the text: as §1, §2, §3, §4

| Molecule | Reactivity to Phosphorothioate Backbone |
| --- | --- |
| B1 | +++ (+++: S/N ≥10) |
| B2 | +++ (+++: S/N ≥10) |
| B3 | +++ (+++: S/N ≥10) |
| B4 | +++ (+++: S/N ≥10) |
| B5 | +++ (+++: S/N ≥10) |

Tested on: LNA (2′-O,4-C-methylene)
Experiment: Epitope mapping solid phase immunoassay (ELISA)
Assay type: binding
Conditions: signal-to-noise (S/N) class
From the text: as §1, §2, §3, §4

| Molecule | Reactivity to LNA (2′-O,4-C-methylene) |
| --- | --- |
| B1 | ++ (++: S/N: 5 to 10) |
| B2 | − (−: S/N <2) |
| B3 | − (−: S/N <2) |
| B4 | − (−: S/N <2) |
| B5 | − (−: S/N <2) |

Tested on: LNA sequence (nucleotides/sequence of bases)
Experiment: Epitope mapping solid phase immunoassay (ELISA)
Assay type: binding
Conditions: signal-to-noise (S/N) class
From the text: as §1, §2, §3, §4

| Molecule | Impact of LNA sequence |
| --- | --- |
| B1 | +++ (+++: S/N ≥10) |
| B2 | −/+ (−/+: S/N: 2 to 3) |
| B3 | − (−: S/N <2) |
| B4 | + (+: S/N: 3 to 5) |
| B5 | +++ (+++: S/N ≥10) |

Tested on: DNA
Experiment: Epitope mapping solid phase immunoassay (ELISA)
Assay type: binding
Conditions: signal-to-noise (S/N) class
From the text: as §1, §2, §3, §4

| Molecule | Reactivity to DNA |
| --- | --- |
| B1 | − (−: S/N <2) |
| B2 | − (−: S/N <2) |
| B3 | − (−: S/N <2) |
| B4 | − (−: S/N <2) |
| B5 | − (−: S/N <2) |
